Target: GST-LC3B, Q9GZQ8
Assay: GST-pulldown, in vitro-translated 35S-labelled protein, autoradiography quantification
Conditions: chain shown with the change; Means ± SD of 3 independent experiments; parent: est. 1.0; read off a plot

B1: Myc-tagged ATG14, full-length, in vitro translated, Q6ZNE5 F64A; F67A; W435A; L438A (protein)
chain: MASPSGKGARALEAPGCGPRPLARDLVDSVDDAEGLYVAVERCPLCNTTRRRLTCAKCVQSGDAVYADGRDRERFIDKKERLSRLKSKQEEFQKEVLKAMEGKWITDQLRWKIMSCKMRIEQLKQTICKGNEEMEKNSEGLLKTKEKNQKLYSRAQRHQEKKEKIQRHNRKLGDLVEKKTIDLRSHYERLANLRRSHILELTSVIFPIEEVKTGVRDPADVSSESDSAMTSSTVSKLAEARRTTYLSGRWVCDDHNGDTSISITGPWISLPNNGDYSAYYSWVEEKKTTQGPDMEQSNPAYTISAALCYATQLVNILSHILDVNLPKKLCNSEFCGENLSKQKFTRAVKKLNANILYLCFSQHVNLDQLQPLHTLRNLMYLVSPSSEHLGRSGPFEVRADLEESMEFVDPGVAGESDESGDERVSDEETDLGTDAENAPSPRFCDIPSQSVEVSQSQSTQASPPIASSSAGGMISSAAASVTSWFKAYTGHR
response: 0.6 % binding

— paper PMC6613885
